Data on ten molecules can be found in patent US20220001000A1 (Regeneron, published 2022).

Test [1] has as its target T1, HLA-A2/HPV16E7:11-19 on peptide-pulsed T2 cells (human; human papillomavirus type 16). Description: MSD cell binding, T2.
Description: To determine anti-HLA-A2/HPV16E7 monoclonal antibody specificity, peptide-pulsed T2 cells loaded with target or off-target peptides (identified in the previous Example) were used. […] Approximately 6 million T2 cells per T-75 flask were cultured for 24 hours at 26° C. in 9 mL of AIM V® Medium containing 10 μg of human b2m and 100 μg of HPV16E7 peptide or off-target peptide (Tables 6 and 7). Peptide-loaded T2 cells were washed once with PBS without Ca2+/Mg2+ and counted. Approximately 10,000 cells per well of the peptide-loaded T2 or untreated T2 in cell washing buffer were seeded into the 96-well carbon electrode plates (MULTI-ARRAY high bind plate, MSD) and incubated for 1 hour at 37° C. to allow cells to adhere to the plate. Nonspecific binding sites were blocked using 2% BSA (w/v) in PBS for 1 hour at room temperature. […] Plates were incubated for 1 hour at room temperature, then washed to remove the unbound antibody using an AquaMax2000 plate washer (MDS Analytical Technologies). Plate-bound antibodies were detected with SULFO-TAG™-conjugated goat polyclonal anti-human IgG antibody specific for the Fc gamma fragment (Jackson Immunoresearch, Meso Scale Discovery) for 1 hour at room temperature. After washes, the plates were developed with the Read Buffer (MSD) according to manufacturer's recommended procedure, and the luminescent signals were recorded with a SECTOR Imager 600 (Meso Scale Discovery) instrument. The luminescence intensity, measured in relative light units (RLU), was recorded to indicate the binding intensity of each antibody at the range of concentrations.
The target of test [2] is monomeric HLA-A2:HPV16E7(11-19) peptide complex, soluble (human; human papillomavirus type 16). Description: SPR 25C, mAb captured.
For test [3], the target named is T1, HLA-A2/HPV16E7:11-19 on peptide-pulsed …. Kind of test: FACS, T2, 10 ug/ml.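 Also: Peptide-pulsed T2 cells held overnight at 26 °C, then stained with antibodies at 10 µg/ml, WI values reported as fold change versus unstained cells.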 In general terms: In flow cytometry, cells or beads pass a laser one at a time.
Description: (§1) T2 cells were then incubated overnight at 26° C., washed in staining buffer and stained with the indicated antibodies at a concentration of 10 μg/ml following the protocol described above. WI values were calculated and presented as fold change over unstained cells.
Test [4] deals with T2, HLA-A2 with off-target peptide SH3GLB1:244-252 on pulsed T2 cells (human).
T2 construct: also called Endophilin-B1
Kind of test: FACS, T2, 10 ug/ml.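 Also: Peptide-pulsed T2 cells held overnight at 26 °C, then stained with antibodies at 10 µg/ml, WI values reported as fold change versus unstained cells.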
Description: as §1

Test [5] deals with HLA-A2 with off-target peptide CAMKK1:388-396 on pulsed T2 cells (human). Description: FACS, T2, 10 ug/ml.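 Also: Peptide-pulsed T2 cells held overnight at 26 °C, then stained with antibodies at 10 µg/ml, WI values reported as fold change versus unstained cells.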
Description: as §1
The target of test [6] is HLA-A2 with off-target peptide USP47:691-699 on pulsed T2 cells (human). Description: FACS, T2, 10 ug/ml.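 Also: Peptide-pulsed T2 cells held overnight at 26 °C, then stained with antibodies at 10 µg/ml, WI values reported as fold change versus unstained cells.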
Description: as §1
Test [7] concerns the target T3, HLA-A2 with off-target peptide CHPF:463:471 on pulsed T2 cells (human).
T3 construct: also called Chondroitin sulfate synthase 2
Kind of test: FACS, T2, 10 ug/ml.
Description: as §1

For test [8], the target named is HLA-A2 with off-target peptide PKD1:2694-2702 on pulsed T2 cells (human). Description: FACS, T2, 10 ug/ml.
Description: as §1
Test [9] deals with HLA-A2 with off-target peptide NBR1:357-365 on pulsed T2 cells (human). Kind of test: FACS, T2, 10 ug/ml.
Description: as §1
Test [10] deals with T4, HLA-A2 with off-target peptide CBL:83-91 on pulsed T2 cells (human).
T4 construct: also called E3 ubiquitin-protein ligase CBL
Description: FACS, T2, 10 ug/ml.
Description: as §1

The target in test [11] is HLA-A2 with off-target peptide PPP4R4:20-28 on pulsed T2 cells (human). Kind of test: FACS, T2, 10 ug/ml.
Description: as §1
Test [12] concerns the target HLA-A2 with off-target peptide SBK3:285-293 on pulsed T2 cells (human). Description: FACS, T2, 10 ug/ml.
Description: as §1
The target of test [13] is HLA-A2 with HPV16E7:11-19 alanine scanning peptide […] (L13A) on pulsed T2 cells (human; human papillomavirus type 16). Kind of test: FACS, T2, Ala scan.
Description: (§2) Alanine scanning was performed to determine which residues in the HPV16E7:11-19 peptide were critical for antibody binding. T2 cells were pulsed with alanine scanning peptides and stained with HPV16E7:11-19 antibodies as described above.
Test [14] concerns the target HLA-A2 with HPV16E7:11-19 alanine scanning peptide […] (L15A) on pulsed T2 cells (human; human papillomavirus type 16). Kind of test: FACS, T2, Ala scan.
Description: as §2

As usually defined, the EC50 is the concentration giving half of the maximal effect. Read a high EC50 as a less potent agent. By Kd is commonly meant the concentration at which binding is half-saturated. Low readings indicate higher affinity, high ones lower affinity. For orientation: t½ means how long it takes for the measured level to halve. In general, koff refers to the first-order rate constant of dissociation. High values mean a short-lived complex, low ones a long-lived complex. As a reminder, the kon is the second-order rate constant of association. Lower therefore signals slow association.

B1: H4sH17930N (antibody, V domains shown)
VH: EVQLVESGGGLVQPGGSLRLSCAASGFTFSYYALHWVRQAPGKGLEYVSAISGNGGSTYYADSVKGRFTISRDKSMSTVYLQVGSLRAEDMAVYYCARSYASSSDYHYYYGMDVWGQGTTVTVSS
VL: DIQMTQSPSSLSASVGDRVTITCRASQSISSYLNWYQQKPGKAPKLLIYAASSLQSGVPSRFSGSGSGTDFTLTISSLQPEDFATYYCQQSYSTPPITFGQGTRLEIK
As for B1, in test [1], the EC50 came to 3.1 nM. In test [2], this molecule gave a Kd of 10.2 nM and a t½ of 14.5 min.

B2: H4sH17930N2 (antibody, V domains shown)
VH: EVQLVESGGGLVQPGGSLRLSCAASGFTFSYYALHWVRQAPGKGLEYVSAISGNGGSTYYADSVKGRFTISRDKSMSTVYLQVGSLRAEDMAVYYCARSYASSSDYHYYYGMDVWGQGTTVTVSS
VL: not shown
As for B2, in test [2], the Kd was determined as 9.57 nM and the t½ came to 14.6 min.

B3: H4sH21080P (antibody, V domains shown)
VH: EVQLVESGGGLVQPGGSLRLSCAASGFTFSSYAMSWVRQAPGKGLEWVSGISGSGGTTYDADSVKGRFTISRDNSKNTLYLQMHSLRAEDTAAYYCAKDWNYGPYYYFGMDVWGQGTTVTVSS
VL: not shown
In turn, B3 had an EC50 in [1] of 0.22 nM. Besides, in test [2], binding was characterised by a dissociation constant (Kd) of 218 nM, the koff is 0.039 s⁻¹, the kon was found to be 179000 M⁻¹ s⁻¹ and the t½ came out at 0.3 min.

B4: H4sH21079P (antibody, V domains shown)
VH: EVQLVESGGGLVKPGGSLRLSCAASGFTFSNAWMSWVRQAPGKGLEWVGRIKTRADGGTTDYAAPVKGRFTISRDDSKNTLYLQLNSLKTEDTAVYYCTSHNWNYEDFDYWGQGTLVTVSS
VL: DIQMTQSPSSLSASVGDRVTITCRASQSISNYLNWYQQKPGKAPKLLIYAASSLQSGVPSRFSGSGSGTDFTLTISSLQPEEFATYYCQQSYSIPYTFGQGTKLEIK
The molecule B4 gave an EC50 in test [1] of 1.1 nM. Further, in test [2], the Kd worked out at 290 nM, the koff came to 0.0109 s⁻¹, the kon stood at 37400 M⁻¹ s⁻¹ and the t½ was 1.1 min.

B5: H4sH21064P (antibody, V domains shown)
VH: EVQLVESGGGLVQPGGSLRLSCAASGFTFTFYAMHWVRQAPGKGLEYVSGISSNGGSTKYADSVKGRFTISRDNSKNTLYLQMGSLRAEDLAVYYCARSYASSSDYHYYYGMDVWGQGTTVTVSS
VL: not shown
In the case of B5, in test [2], the Kd was found to be 14.4 nM and the t½ is 14.6 min.

B6: H4sH17670P (antibody, V domains shown)
VH: EVQLVESGGDLVQPGTSLRLSCEASGFTLSFYAMYWVRQAPGKELELVSGISGNGESMFYGNSVKGRFSISRDNSKNTLYLQMGSVRAEDMAVYYCARAYASGNSYFFYYGMDVWGQGTTVTVSS
VL: not shown
Regarding B6, the response in [1] was half-maximal at 1.3 nM (EC50). For the same molecule, binding in [2] was put at a Kd of 17.5 nM.

B7: H4sH17675P (antibody, V domains shown)
VH: EVQLVESGGGLVQPGASLRLSCEASGFTLSFYAMHWVRQAPGKELEYVSGISGNGNSIYYRDSVKGRFTISRDNSKNTLYLQMGSVGAEDMAVYYCARSYSSGNSYYYYYGMDVWGQGTTVTVSS
VL: DIQMTQSPSSLSASVGDRITITCRASQSISSYLNWYQQKPGKAPNLLIYAASNLQSGVPSRFSGSGSGTDFTLTISSLQPEDFATYYCQQSYSTPPITFGQGTRLEIKR
For B7, the “Fold change over unstained” value in test [3] turned out to be 1200 fold; in [4] it was 10.5 fold; in [5], 2.4 fold; in test [6], 13.3 fold; in test [7], 5 fold; in [8], 2.9 fold. Moreover, the “Fold change over unstained” value in [9] turned out to be 2.2 fold; in test [10] it was 4.9 fold; in test [11], 5.5 fold; in test [12] it was 2.9 fold. The results for the “FACS binding (fold over unstained)” value in test [13] and in test [14] were 527 fold and 1150 fold, respectively. Moreover, in [1], the EC50 was found to be 1.1 nM. The Kd in test [2] amounted to 23.1 nM. This molecule also came in with a koff in test [2] of 0.00138 s⁻¹. For the same molecule, the kon in test [2] turned out to be 59900 M⁻¹ s⁻¹. The same molecule returned a t½ in test [2] of 8.4 min.

B8: H4sH17672P (antibody, V domains shown)
VH: EVQLVESGGGLVQPGASLRLSCEASGFTLSFYSMHWVRQAPGRELEYVSGISGNGNNIYYRDSVKGRFTISRDNSKNTLNLQMGSVRAEDMGVYYCARSYSSGNSYNYYYGMDVWGQGTTVTVSS
VL: DIQMTQSPSSLSASVGDRVTITCRASQTISSYLNWYQQKPGKAPKLLIYAVSNLQSGVPSRFSGSGSGTDFTLTISSLQPEDFATYYCQQSYSTPPITFGQGTRLEIK
In test [1], B8 registered an EC50 of 0.45 nM. In test [2], this molecule had a Kd of 6.37 nM, a koff of 0.000819 s⁻¹, a kon of 129000 M⁻¹ s⁻¹ and a t½ of 14.1 min.

B9: H4sH17363N (antibody, V domains shown)
VH: EVQLLESGGGLVQPGGSLRLSCAASGFTFSSYAMTWVRQAPGMGLEWVSVISGSGSETYYADSVKGRFTISRDNSKNTLYLQMNSLRAEDTAVYYCVKDSSYRSSSRAYYYYGMDVWGLGTTVTVSS
VL: DIQMTQSPSSLSASVGDRVTITCRASQSISSYLNWYQQKPGKAPKLLIYAVSILQSGVPSRFSGSGSGTDFTLTINSLQPEDFATYSCQQTYSTPPITFGQGTRLEIKR
As to B9, the “Fold change over unstained” value in [3] is 1000 fold; in [4], 13.6 fold; in [5], 2 fold; in test [6] it was 0.6 fold; in [7], 7.4 fold; in [8] it was 1.2 fold. In addition, the “Fold change over unstained” value in test [9] is 3.6 fold; in test [10], 19.5 fold; in test [11] it was 6.1 fold; in test [12], 0.4 fold. In addition, the “FACS binding (fold over unstained)” value in [13] worked out at 530 fold; in [14], 1020 fold. Further, the EC50 in test [1] turned out to be 2.1 nM. Binding in [2] was put at a Kd of 17.6 nM. In addition, the koff in [2] turned out to be 0.00154 s⁻¹. Further, the kon in [2] is 87200 M⁻¹ s⁻¹. Further, in test [2], the t½ was 7.5 min.

B10: H4sH17364N (antibody, V domains shown)
VH: EVQLLESGGGLVQPGGSLRLSCAASGFTFSSYAMTWVRQAPGKGLEWVSVISGSGSETYYADSVKGRFTISRDNSKNTLYLQMNSLRAEDTAVYYCVKDSSYRSSSRAYYYYGMDVWGLGTTVTVSS
VL: DIQMTQSPSSLSASVGDRVTITCRASQSISSYLNWYQQKPGKAPKLLIYAVSILQSGVPSRFSGSGSGTDFTLTISSLQPEDFATYSCQQTYSTPPITFGQGTRLEIKR
Regarding B10, the “Fold change over unstained” value came out at 986 fold in test [3]; 15.2 fold in test [4]; 1 fold in test [5]; 1.3 fold in test [6]; 10.9 fold in test [7]; 1 fold in [8]. Further, the “Fold change over unstained” value in test [9] is 3 fold; in test [10], 23.9 fold; in test [11], 9 fold; in [12], 0.8 fold. In addition, the “FACS binding (fold over unstained)” value in [13] amounted to 490 fold; in test [14], 1010 fold. Further, the EC50 in test [1] came to 2 nM. Moreover, binding in [2] was characterised by a dissociation constant (Kd) of 18.3 nM. This molecule showed a koff in [2] of 0.00157 s⁻¹. The kon in test [2] was found to be 85600 M⁻¹ s⁻¹. This molecule also registered a t½ in [2] of 7.4 min.
